# Measurements taken from publication PMC4374768.
# What was measured:
# [1] = biological target: T1, His6-TyrR (Enterobacter cloacae UW5?) (UniProt B2D1S2); assay: EMSA; conditions: 20% glycerol, 250 mM NaCl, 50 mM Tris-Cl pH 7.5, 5 mM MgCl2, 2.5 mM DTT, 2.5 mM EDTA, 0.1 mM ATP, 0.1 mM Trp, Phe or Tyr, 1 ug poly d(I-C), 50 ng DNA, room …
# T1 sequence: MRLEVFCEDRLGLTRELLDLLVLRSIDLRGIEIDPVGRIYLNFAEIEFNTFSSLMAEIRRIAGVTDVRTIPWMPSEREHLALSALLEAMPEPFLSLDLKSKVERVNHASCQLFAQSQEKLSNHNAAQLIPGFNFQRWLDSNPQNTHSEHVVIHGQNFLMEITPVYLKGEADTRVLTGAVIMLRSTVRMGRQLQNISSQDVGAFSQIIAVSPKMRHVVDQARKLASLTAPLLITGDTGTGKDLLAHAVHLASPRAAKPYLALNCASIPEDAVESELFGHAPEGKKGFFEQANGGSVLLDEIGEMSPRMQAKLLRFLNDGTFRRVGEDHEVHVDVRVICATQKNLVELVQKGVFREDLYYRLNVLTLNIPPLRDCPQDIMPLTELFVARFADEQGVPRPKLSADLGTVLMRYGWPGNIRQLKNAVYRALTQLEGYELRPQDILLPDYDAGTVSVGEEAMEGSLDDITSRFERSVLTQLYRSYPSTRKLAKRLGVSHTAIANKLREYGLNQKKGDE
# [2] = biological target: T1, His6-TyrR (Enterobacter cloacae UW5?); assay: competition; conditions: 20% glycerol, 250 mM NaCl, 50 mM Tris-Cl pH 7.5, 5 mM MgCl2, 2.5 mM DTT, 2.5 mM EDTA, 0.1 mM ATP, 0.1 mM Trp, Phe or Tyr, 1 ug poly d(I-C), 50 ng DNA, room …
Sequence,binding [1],binding [2]
GGTTCGCATAACAGGTGTCCTTCTGACGTTGACCTCACTTTGAGTATTAAAGAAGCGTGATGGCTGTCCAGAATTGGTCGTAAGAAGGGCATGGAAAGAATGCTTTACAAAAAAGGCTGCGCTATGCTCTTTTTTTTCATATAAATATAAACGTATATACTGATTTTTCCTTTCAGCGCCAGAGGGCATCAGAATGGG (double strand) [akr-ipdC weak box mutant],binds,
GGTTCGCATAACAGGTGTCCTTCTGACGTTGACCTCACTTTGAGTATTAAAGAAGCGTGATGGCTGTCCAGAATTGGTCGTAAGAAGGGCATAGAAAGAATGCTTTATAAAAAAGGCTGCGCTATGCTCTTTTTTTTCATATAAATATAAACGTATATACTGATTTTTCCTTTCAGCGCCAGAGGGCATCAGAATGGG (double strand) [akr-ipdC double weak and strong box mutant],no binding,
GGTTCGCATAACAGGTGTCCTTCTGACGTTGACCTCACTTTGAGTATTAAAGAAGCGTGATGGCTGTCCAGAATTGGTCGTAAGAAGGGCATAGAAAGAATGCTTTATAAAAAAGGCTGCGCTATGCTCTTTTTTTTCATGTAAATGTAAACGTATACACTGATTTTTCCTTTCAGCGCCAGAGGGCATCAGAATGGG (double strand) [akr-ipdC strong box mutant],binds more weakly,
GGTTCGCATAACAGGTGTCCTTCTGACGTTGACCTCACTTTGAGTATTAAAGAAGCGTGATGGCTGTCCAGAATTGGTCGTAAGAAGGGCATGGAAAGAATGCTTTACAAAAAAGGCTGCGCTATGCTCTTTTTTTTCATGTAAATGTAAACGTATACACTGATTTTTCCTTTCAGCGCCAGAGGGCATCAGAATGGG (double strand) [akr-ipdC intergenic region wild-type],binds,binds
